Entries after “also recorded” stand apart in the source; their conditions may differ.
Columns and labels:
[1] = target: T1, rhNodal/rhCripto-1 complex (Homo sapiens, UniProt Q96S42); assay: SPR competition assay: rhNodal pre-incubated with 3D1 injected over Cripto-1-derivatized chip; format: binding
T1 construct: E. coli derived His238 Leu347, with an N-terminal Met; purchased R&D Systems
T1 sequence (Q96S42 238-347): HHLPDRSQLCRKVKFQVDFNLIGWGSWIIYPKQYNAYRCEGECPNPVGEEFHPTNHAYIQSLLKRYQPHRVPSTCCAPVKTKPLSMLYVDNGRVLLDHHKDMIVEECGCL
Method: Next, experiments were conducted to assess the ability of 3D1 antibodies to inhibit binding between Nodal and Cripto-1 through SPR experiments. Experiments were performed on CM5 sensor chips with immobilized Cripto-1.
The antibody at 1:1 molar ratio prevents the binding of hNodal to hCripto-1-1 by about 70%. Accordingly, the invention provides that, in one embodiment, 3D1 can be used to prevent binding between Cripto-1 and Nodal (e.g., for therapeutic uses described herein (e.g., to inhibit and/or neutralize Cripto-1-mediated Nodal signaling)).
Competition assays. Competition assays were performed using Biacore sensor chips derivatized with rhCripto-1-1. The binding between immobilized rhCripto-1-1 and rhNodal was assessed by injecting solutions of the Nodal protein at increasing concentrations. rhNodal was incubated at 5 nM with 3D1 mAb at concentrations matching 1:0.5, 1:1 and 1:2 molar ratios (protein:mAb).
SPR analyses were performed at 25° C. using HBS as running buffer. Protein immobilization was carried out following the canonical amine coupling chemistry using the surface immobilization wizard procedure, operating at 5 μL/min. […] Dissociations were monitored for at least 3 additional minutes. […]

[2] = tested on: A375SM human metastatic melanoma cells; assay: A375SM orthotopic xenograft in Nude mice; format: in vivo
Method: Experiments were carried out to determine the in vivo effects of 3D1 mAb on primary melanoma. To this end, 500,000 C8161 cells were injected subcutaneously in Nude mice. Palpable tumors were then injected directly with either 700 μg of total 3D1 mAb or IgG control antibody (alternate day intratumoral injection of 100 μg over 14 days). Mice were then sacrificed and subcutaneous tumors harvested and processed as previously described. To evaluate the effect of 3D1 mAb in the presence of the BRAF(V600E) mutation, a third orthotopic xenograft model was established in Nude mice via subcutaneous injection of approximately 150,000 A375SM human metastatic melanoma cells. Mice were treated IP with 3D1 mAb or IgG control, as described above, or 3 mg/kg of dabrafenib.
Four micron thick, formalin fixed, paraffin embedded tissue sections were prepared and immunohistochemistry was carried out on a Dako Plus autostainer (DAKO, Inc, Carpenteria, Calif.). Following antigen retrieval and blocking steps, sections were incubated in primary antibody for 60 mins, followed by appropriate biotinylated secondary antibody (Biocare Medical, Conrad, Calif.), and then streptavidin-horseradish peroxidase (Thermo Scientific Lab Vision). Color was developed with 3,3′-diaminobenzidine substrate (Thermo Scientific Lab Vision) and sections were counterstained with hematoxylin (Biocare Medical, LLC). As a negative control, adjacent serial sections were incubated with species appropriate irrelevant IgG (Jackson ImmunoResearch Labs) at the same concentration as primary antibodies. Similar to the lung tumor burden evaluation described above, mean percentage of positive staining±SEM was determined by 2 different observers, each calculating the ratio of positive cells/total number of cells×100 for 4 separate high power fields (63× objective) from at least 2 different mice per group.

inhibition of the binding of Nodal to Cripto-1 ([1]; 3D1 mAb at 5 nM (1:1 molar ratio), rhNodal 5 nM): approximately 70% | prevention of binding of hNodal to hCripto-1 ([1]; antibody at 1:1 molar ratio, 5 nM Nodal): about 70%
B1: 3D1: mouse monoclonal anti-Nodal antibody raised against hNodal(44-67); light chain SEQ ID NO:1, heavy chains SEQ ID NO:2 and 3 (protein)
light: DIKMTQSPASLSASVGETVTITCRASGNIHNYLAWYQQKQGKSPQLLVYNAKTLADGVPSRFSGSGSGTQYSLKINSLQPEDFGSYYCQHFWSTPHVRCWDQAGTETEAW
heavy 1: VKLVESGGGLVKPGGSLKLSCAASGFTFSSYAMSWVRQTPEKRLEWVASISSGGCTYYPDSVKGRFTISRDNARNILYLQMSSLRSEDTAMYYCARGSMITADGNSLLLCYGLLGSRNLXHR
heavy 2: VKLVESGGGLVQPGGSMKLSCVASGFTFRNYWMSWVRQSPEKGLEWVAEIRLKSDNYAARYAESVKGKFTISRDDSKSRLYLQMNSLRAEDTGIYYCTGIRRFAYWGQGTL
modifications: not fully specified; (120)..(120) Xaa can be any naturally occurring amino acid
mean percentage (±SEM) of nuclear P-Smad2 ([2]; IHC, N=4): 28.1%±2.6% | tumor volumes ([2]; after 8 days, vs IgG control, listed as 3D1 mAb): significantly reduced; also recorded: significantly smaller
